Measured values from patent publication US20240279321A1 (THERINI BIO, published 2024).
Where no end group is shown, it is not given here. The star is where a group is joined. Biotin = O=C1N[C@H]2[C@H](CS[C@H]2CCCCC(=O)*)N1

Assays:
[1] = target: T1, Human fibrin γ377-395 (Human P2 peptide) (human); experiment: BLI (ForteBio Octet): N-term biotinylated fibrin P2G peptide on SA tip, IgG in solution 100 nM (avid)
T1 construct: In the crystal models, residues 410-421 of chain A are ordered; also called fibrin P2 peptide; fibrin P2 gamma peptide
T1 peptide: Biotin-YSMKKTTMKIIPFNRLTIG

[2] = target: T1, Human fibrin γ377-395 (Human P2 peptide); experiment: BLI (Octet): N-term biotinylated P2G peptide on SA sensor, 100nM Fab in solution
[3] = target: T1, Human fibrin γ377-395 (Human P2 peptide); experiment: BLI (ForteBio Octet): N-term biotinylated fibrin P2G peptide on SA tip, IgG in solution 100 nM (avid) [Cont.]
[4] = target: T1, Human fibrin γ377-395 (Human P2 peptide); experiment: BLI (ForteBio Octet): N-term biotinylated fibrin P2G peptide on SA tip, Fab in solution 100 nM (monovalent)
[5] = target: T1, Human fibrin γ377-395 (Human P2 peptide); experiment: BLI (ForteBio Octet): N-term biotinylated fibrin P2G peptide on SA tip, Fab in solution 100 nM (monovalent) [Cont.]
[6] = target: T1, Human fibrin γ377-395 (Human P2 peptide); experiment: ELISA (N-P2 ELISA), RFU readout
[7] = target: T1, Human fibrin γ377-395 (Human P2 peptide); experiment: ELISA (N-P2 ELISA), RFU readout; C is the duplicate of clone 61278
[8] = target: T1, Human fibrin γ377-395 (Human P2 peptide); experiment: BLI (ForteBio Octet): N-term biotinylated fibrin P2G peptide on SA tip, Fab in solution 100 nM (monovalent)
[9] = target: T1, Human fibrin γ377-395 (Human P2 peptide); experiment: BLI (Octet): N-term biotinylated P2G peptide on SA sensor, 100nM Fab in solution; the same panel stands twice in the middle row
[10] = target: T1, Human fibrin γ377-395 (Human P2 peptide); experiment: BLI (Octet RED384), Fab on P2 peptide; on-rate phase 0-300 s, off-rate phase 300-600 s
[11] = target: T1, Human fibrin γ377-395 (Human P2 peptide); experiment: BLI (ForteBio Octet): N-term biotinylated fibrin P2G peptide on SA tip, IgG in solution 100 nM (avid)

B1: 60140 (IgG) (antibody, V domains shown)
VH: QVQLVQSGAEVKKPGASVKVSCKASGYTFTSVWIHWVRQAPGQGLEWIGLIDPSDSYTNYNQKFRGRATLTVDTSTSTAYMELSSLRSEDTAVYYCASSRPTGGWGQGTTVTVSS
VL: DIVMTQSPLSLPVTPGEPASISCRSSKSLLHSSGITYLSWYLQKPGQSPQLLIYQMSNLASGVPDRFSGSGSGTDFTLKISRVEAEDVGVYYCAQNLELPLTFGGGTKVEIKR
binding result [1]: binds

B2: 56666 (parent) (Fab) (Fab, V domains shown)
VH: QVQLVQSGAEVKKPGASVKVSCKASGYTFTSYWIHWVRQAPGQGLEWMGLIDPSDSYTNYNQKFRGRVTMTVDTSTSTAYMELSSLRSEDTAVYYCASSDPTGGWGQGTTVTVSS
VL: DIVMTQSPLSLPVTPGEPASISCRSSKSLLHSSGITYLSWYLQKPGQSPQLLIYQMSNLASGVPDRFSGSGSGTDFTLKISRVEAEDVGVYYCAQNLELPLTFGGGTKVEIKR
notes: also called ADI-56666; clone 56666 Fab
Kd [2]: 1300 nM

B3: 61255 (IgG) (antibody, V domains shown)
VH: QVQLVQSGAEVKKPGASVKVSCKASGYTFTSYWIHWVRQAPGQGLEWIGLIDPSDSYTNYNQKFRGRATLTVDTSTSTAYMELSSLRSEDTAVYYCASSDATGGWGQGTTVTVSS
VL: DIVMTQSPLSLPVTPGEPASISCRSSKSLLHSSGHTYLSWYLQKPGQPPQLLIYQMSNLASGVPDRFSGSGSGTDFTLKISRVEAEDVGVYYCAQALELPLTFGGGTKVEIKR
notes: also called clone 61255 IgG
binding result [3]: binds

B4: 61285 (Fab) (Fab, V domains shown)
VH: QVQLVQSGAEVKKPGASVKVSCKASGYTFTSSWIHWVRQAPGQGLEWMGLIDPSDSYTNYNQKFRGRVTMTVDTSTSTAYMELSSLRSEDTAVYYCASSDPHGGWGQGTTVTVSS
VL: DIVMTQSPLSLPVTPGEPASISCRSSKSLLHSSGITYLSWYLQKPGQSPQLLIYQMSNLASGVPDRFSGSGSGTDFTLKISRVEAEDVGVYYCAQSLELPLTFGGGTKVEIKR
binding result [4]: binds

B5: 61255 (Fab) (Fab, V domains shown)
VH: QVQLVQSGAEVKKPGASVKVSCKASGYTFTSYWIHWVRQAPGQGLEWIGLIDPSDSYTNYNQKFRGRATLTVDTSTSTAYMELSSLRSEDTAVYYCASSDATGGWGQGTTVTVSS
VL: DIVMTQSPLSLPVTPGEPASISCRSSKSLLHSSGHTYLSWYLQKPGQPPQLLIYQMSNLASGVPDRFSGSGSGTDFTLKISRVEAEDVGVYYCAQALELPLTFGGGTKVEIKR
notes: also called clone 61255 Fab
binding result [5]: binds

B6: antibody clone 61278 (ADI-61278 IgG) (antibody, V domains shown)
VH: QVQLVQSGAEVKKPGASVKVSCKASGYTFTSYWIHWVRQAPGQGLEWMGLIDPSDSYTNYNQKFRGRVTMTVDTSTSTAYMELSSLRSEDTAVYYCASSDATGGWGQGTTVTVSS
VL: DIVMTQSPLSLPVTPGEPASISCRSSKSLLHSSGITYLSWYLQKPGQSPQLLIYQMSNLASGVPDRFSGSGSGTDFTLKISRVEAEDVGVYYCAQALELPLTFGGGTKVEIKR
EC50 [6]: 0.13 nM
EC50 [7]: 0.11 nM

B7: ADI-61283 (Fab) (Fab, V domains shown)
VH: QVQLVQSGAEVKKPGASVKVSCKASGYTFTSAWIHWVRQAPGQGLEWMGLIDPSDSYTNYNQKFRGRVTMTVDTSTSTAYMELSSLRSEDTAVYYCASSDPYGGWGQGTTVTVSS
VL: DIVMTQSPLSLPVTPGEPASISCRSSKSLLHSSGITYLSWYLQKPGQSPQLLIYQMSNKASGVPDRFSGSGSGTDFTLKISRVEAEDVGVYYCAQSLELPLTFGGGTKVEIKR
binding result [8]: binds

B8: 56657 (parent) (Fab) (Fab, V domains shown)
VH: QVQLVQSGAEVKKPGASVKVSCKASGYTFTSYWIHWVRQAPGQGLEWIGLIDPSDSYTNYNQKFRGRATLTVDTSTSTAYMELSSLRSEDTAVYYCASSDPTGGWGQGTTVTVSS
VL: DIVMTQSPLSLPVTPGEPASISCRSSKSLLHSSGITYLSWYLQKPGQSPQLLIYQMSNLASGVPDRFSGSGSGTDFTLKISRVEAEDVGVYYCAQNLELPLTFGGGTKVEIKR
notes: also called ADI-56657; clone 56657 Fab
Kd [2]: 264 nM

B9: 60140 (Fab) (Fab, V domains shown)
VH: QVQLVQSGAEVKKPGASVKVSCKASGYTFTSVWIHWVRQAPGQGLEWIGLIDPSDSYTNYNQKFRGRATLTVDTSTSTAYMELSSLRSEDTAVYYCASSRPTGGWGQGTTVTVSS
VL: DIVMTQSPLSLPVTPGEPASISCRSSKSLLHSSGITYLSWYLQKPGQSPQLLIYQMSNLASGVPDRFSGSGSGTDFTLKISRVEAEDVGVYYCAQNLELPLTFGGGTKVEIKR
binding result [4]: binds

B10: 61275 (Fab) (Fab, V domains shown)
VH: QVQLVQSGAEVKKPGASVKVSCKASGYTFTSSWIHWVRQAPGQGLEWMGLIDPSDSYTNYNQKFRGRVTMTVDTSTSTAYMELSSLRSEDTAVYYCASSAPTGGWGQGTTVTVSS
VL: DIVMTQSPLSLPVTPGEPASISCRSSKSLLHSSGITYLSWYLQKPGQSPQLLIYQMSNLASGVPDRFSGSGSGTDFTLKISRVEAEDVGVYYCAQALELPLTFGGGTKVEIKR
binding result [4]: binds

B11: 61273 (IgG) (antibody, V domains shown)
VH: QVQLVQSGAEVKKPGASVKVSCKASGYTFTSTWIHWVRQAPGQGLEWMGLIDPSDSYTNYNQKFRGRVTMTVDTSTSTAYMELSSLRSEDTAVYYCASSKPTGGWGQGTTVTVSS
VL: DIVMTQSPLSLPVTPGEPASISCRSSKSLLHSSGITYISWYLQKPGQSPQLLIYQMSNLASGVPDRFSGSGSGTDFTLKISRVEAEDVGVYYCAQNLELPLTFGGGTKVEIKR
notes: also called ADI-61273; clone 61273 IgG
binding result [3]: binds

B12: Fab of antibody clone 61278 (ADI-61278 Fab) (Fab, V domains shown, not shown: a dimerising Fc or GST)
VH: QVQLVQSGAEVKKPGASVKVSCKASGYTFTSYWIHWVRQAPGQGLEWMGLIDPSDSYTNYNQKFRGRVTMTVDTSTSTAYMELSSLRSEDTAVYYCASSDATGGWGQGTTVTVSS
VL: DIVMTQSPLSLPVTPGEPASISCRSSKSLLHSSGITYLSWYLQKPGQSPQLLIYQMSNLASGVPDRFSGSGSGTDFTLKISRVEAEDVGVYYCAQALELPLTFGGGTKVEIKR
notes: The crystal model holds chain H residues 1-126 and 133-214 and chain L residues 1-213; also called Fab ADI61278
Kd [9]: 38 nM
Kd [10]: 104 nM

B13: 61273 (Fab) (Fab, V domains shown)
VH: QVQLVQSGAEVKKPGASVKVSCKASGYTFTSTWIHWVRQAPGQGLEWMGLIDPSDSYTNYNQKFRGRVTMTVDTSTSTAYMELSSLRSEDTAVYYCASSKPTGGWGQGTTVTVSS
VL: DIVMTQSPLSLPVTPGEPASISCRSSKSLLHSSGITYISWYLQKPGQSPQLLIYQMSNLASGVPDRFSGSGSGTDFTLKISRVEAEDVGVYYCAQNLELPLTFGGGTKVEIKR
notes: also called ADI-61273; clone 61273 Fab
binding result [5]: binds

B14: 60183 (Fab) (Fab, V domains shown)
VH: QVQLVQSGAEVKKPGASVKVSCKASGYTFTSTWIHWVRQAPGQGLEWMGLIDPSDSYTNYNQKFRGRVTMTVDTSTSTAYMELSSLRSEDTAVYYCASSKPTGGWGQGTTVTVSS
VL: DIVMTQSPLSLPVTPGEPASISCRSSKSLLHSSGITYLSWYLQKPGQSPQLLIYQMSNLASGVPDRFSGSGSGTDFTLKISRVEAEDVGVYYCAQNLELPLTFGGGTKVEIKR
notes: also called ADI-60183; clone 60183 Fab
binding result [5]: binds

B15: ADI-61283 (IgG) (antibody, V domains shown)
VH: QVQLVQSGAEVKKPGASVKVSCKASGYTFTSAWIHWVRQAPGQGLEWMGLIDPSDSYTNYNQKFRGRVTMTVDTSTSTAYMELSSLRSEDTAVYYCASSDPYGGWGQGTTVTVSS
VL: DIVMTQSPLSLPVTPGEPASISCRSSKSLLHSSGITYLSWYLQKPGQSPQLLIYQMSNKASGVPDRFSGSGSGTDFTLKISRVEAEDVGVYYCAQSLELPLTFGGGTKVEIKR
binding result [11]: binds

B16: 61275 (IgG) (antibody, V domains shown)
VH: QVQLVQSGAEVKKPGASVKVSCKASGYTFTSSWIHWVRQAPGQGLEWMGLIDPSDSYTNYNQKFRGRVTMTVDTSTSTAYMELSSLRSEDTAVYYCASSAPTGGWGQGTTVTVSS
VL: DIVMTQSPLSLPVTPGEPASISCRSSKSLLHSSGITYLSWYLQKPGQSPQLLIYQMSNLASGVPDRFSGSGSGTDFTLKISRVEAEDVGVYYCAQALELPLTFGGGTKVEIKR
binding result [1]: binds

B17: 60183 (IgG) (antibody, V domains shown)
VH: QVQLVQSGAEVKKPGASVKVSCKASGYTFTSTWIHWVRQAPGQGLEWMGLIDPSDSYTNYNQKFRGRVTMTVDTSTSTAYMELSSLRSEDTAVYYCASSKPTGGWGQGTTVTVSS
VL: DIVMTQSPLSLPVTPGEPASISCRSSKSLLHSSGITYLSWYLQKPGQSPQLLIYQMSNLASGVPDRFSGSGSGTDFTLKISRVEAEDVGVYYCAQNLELPLTFGGGTKVEIKR
notes: also called ADI-60183; clone 60183 IgG
binding result [3]: binds

B18: 61285 (IgG) (antibody, V domains shown)
VH: QVQLVQSGAEVKKPGASVKVSCKASGYTFTSSWIHWVRQAPGQGLEWMGLIDPSDSYTNYNQKFRGRVTMTVDTSTSTAYMELSSLRSEDTAVYYCASSDPHGGWGQGTTVTVSS
VL: DIVMTQSPLSLPVTPGEPASISCRSSKSLLHSSGITYLSWYLQKPGQSPQLLIYQMSNLASGVPDRFSGSGSGTDFTLKISRVEAEDVGVYYCAQSLELPLTFGGGTKVEIKR
binding result [1]: binds
